Reference: patent US20210270842A1 (DYAX, published 2021)
Residue numbers refer to the chain shown, from its start. Blank lines part the entries; values can stand above or below the binder they belong to.

Target: T1, intact high molecular weight kininogen (HMWK) (Homo sapiens, UniProt P01042 19-644)
T1 construct: also called intact HMWK; 1-chain HMWK
T1 sequence: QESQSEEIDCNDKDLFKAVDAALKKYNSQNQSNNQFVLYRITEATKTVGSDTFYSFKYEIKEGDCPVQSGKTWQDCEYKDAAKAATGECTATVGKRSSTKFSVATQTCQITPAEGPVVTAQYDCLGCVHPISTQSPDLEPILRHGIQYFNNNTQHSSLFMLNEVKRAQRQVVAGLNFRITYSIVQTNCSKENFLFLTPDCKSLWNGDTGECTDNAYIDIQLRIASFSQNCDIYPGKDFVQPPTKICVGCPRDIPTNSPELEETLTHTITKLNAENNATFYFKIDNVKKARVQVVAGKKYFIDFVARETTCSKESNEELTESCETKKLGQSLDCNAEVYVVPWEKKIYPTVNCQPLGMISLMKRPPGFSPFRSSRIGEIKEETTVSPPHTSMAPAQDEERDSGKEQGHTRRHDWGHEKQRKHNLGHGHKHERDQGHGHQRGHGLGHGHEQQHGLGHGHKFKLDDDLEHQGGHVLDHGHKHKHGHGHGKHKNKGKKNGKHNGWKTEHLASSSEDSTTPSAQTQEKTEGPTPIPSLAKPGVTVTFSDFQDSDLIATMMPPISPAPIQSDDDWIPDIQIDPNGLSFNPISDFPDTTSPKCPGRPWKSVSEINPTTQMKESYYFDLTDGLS
Test: ELISA: Fab coated on 96-well plate, LowCross block, biotinylated antigen, streptavidin-HRP; signal over uncoated well
Protocol: Thirty-six purified Fab clones (see Table 2 below) were assessed for binding to cleaved HWMK, intact HMWK, and LWMK using the immunoassay described in Example 1. Specifically, each of the purified Fab clones was immobilized on 96-well assay plates at a concentration of […]) in a total volume of 100 μL in PBS and incubated overnight at 2-8° C. The assay plates were blocked using LowCross blocking buffer. Biotinylated intact HMWK, biotinylated cleaved HMWK or biotinylated LMWK ([…]) was added to each well in a total volume of 100 μL and incubated for 2 hours prior to washing with a wash buffer. HRP-labeled streptavidin was added to each well at a concentration of 100 ng/mL, and the signal was developed using Ultra TMB Substrate. The signal to noise ratio was calculated using the signal observed upon the addition of the biotinylated protein to an uncoated well. (FIG. 2, panels A and B). Based on the ELISA results, the antibodies can be divided among 5 categories (Table 2).

B1: 559B-M0048-D12 (Fab, V domains shown)
VH: EVQLLESGGGLVQPGGSLRLSCAASGFTFSRYQMTWVRQAPGKGLEWVSSIGSSGGFTNYADSVKGRFTISRDNSKNTLYLQMNSLRAEDTAVYYCARLPANFYYYMDVWGKGTTVTVSS
VL: DIQMTQSPSSLSASVGDRVTITCRASQNIYSFLNWYQQKPGKAPKLLIYATSSLQSGVPSRFSGSGSGTDFTLTISSLQPEDFASYYCQQNYNIPWTFGQGTKVEIK
binding result: binds

B2: 559B-M0044-C05 (Fab, V domains shown)
VH: EVQLLESGGGLVQPGGSLRLSCAASGFTFSIYQMYWVRQAPGKGLEWVSSIYSSGGRTFYADSVKGRFTISRDNSKNTLYLQMNSLRAEDTAVYYCATRGSWYVGGNEYFQHWGQGTLVTVSS
VL: QSVLTQSPSLSLSPGQTASIPCSGDTLGNKFVSWYQQKPGQSPVLVIYQDTKRPSGIPERFSGSNSGNTATLTITGTQAMDEADYYCQVWDSNSYAFGPGTKVTVL
binding result: binds

B3: 559B-M0067-E02 (Fab, V domains shown)
VH: EVQLLESGGGLVQPGGSLRLSCAASGFTFSLYPMVWVRQAPGKGLEWVSSIYPSGGFTTYADSVKGRFTISRDNSKNTLYLQMNSLRAEDTAVYYCARSSRYYYYGMDVWGQGTTVTVSS
VL: QYELTQPPSMSGTPGQRVTISCSGSSSNIGSEYVYWFQQLPGTAPKLLIYRNDQRPSGVPDRFSGSKSGTSASLAISGLRSEDETDYYCSTWDDTLRTGVFGGGTKVTVL
binding result: binds

B4: 559B-M0019-E12 (Fab, V domains shown)
VH: EVQLLESGGGLVQPGGSLRLSCAASGFTFSGYNMYWVRQAPGKGLEWVSRISPSGGWTSYADSVKGRFTISRDNSKNTLYLQMNSLRAEDTAVYYCTRGQWMDWWGQGTMVTVSS
VL: DIQMTQSPSSLSASVGDRVIITCRASQNITGYLNWYQQKPGKAPNLLIYDASRMNTGVPSRFRGSGSGTDYILTIYKLEPEDIGTYFCQHTDDFSVTFGGGTKVDLK
binding result: binds

B5: 559B-M0042-E06 (Fab, V domains shown)
VH: EVQLLESGGGLVQPGGSLRLSCAASGFTFSMYKMSWVRQAPGKGLEWVSVISPSGGRTYYADSVKGRFTISRDNSKNTLYLQMNSLRAEDTAVYYCARGTRTSGLDYWGQGTLVTVSS
VL: QSALTQPASVSGSPGQSITISCTGTSSDVGGYKYVSWYQQHPGKAPKLVIYEVSNRPSGVSNRFSGSKSGNTASLTISGLQAEDEADYYCSSYTSSTTVVFGGGTKLTVL
binding result: binds

B6: 559B-M0017-H08 (Fab, V domains shown)
VH: EVQLLESGGGLVQPGGSLRLSCAASGFTFSPYWMHWVRQAPGKGLEWVSVISPSGGGTGYADSVKGRFTISRDNSKNTLYLQMNSLRAEDTAVYYCARESRGSGSHEDYWGQGTLVTVSS
VL: DIQMTQSPATLSLSPGERATLSCRASQSVSSYLAWYQQKPGQAPRLLIYGASNRGTGIPARFSGSGSGTEFTLTISSLQSEDFAVYFCQQYKNWPNLTFGGGTKVDIK
binding result: binds

B7: 559B-M0039-H06 (Fab, V domains shown)
VH: EVQLLESGGGLVQPGGSLRLSCAASGFTFSAYDMHWVRQAPGKGLEWVSSIWPSGGGTYYADSVKGRFTISRDNSKNTLYLQMNSLRAEDTAVYYCARGDYDYGDFTDAFDIWGQGTMVTVSS
VL: QSALTQPASVSGSPGQSITISCTGTSSDVGSYNLVSWYQQHPGKAPKLMIYEGSKRPSGVPDRFSGSKSGNTASLIISGLQAEDEADYYCCSYAGSYSYVFGTGTRVTVL
binding result: binds

B8: 559B-M0068-C07 (Fab, V domains shown)
VH: EVQLLESGGGLVQPGGSLRLSCAASGFTFSSYQMHWVRQAPGKGLEWVSGIYSSGGSTPYADSVKGRFTISRDNSKNTLYLQMNSLRAEDTAVYYCARGHHGMDVWGQGTTVTVSS
VL: DIQMTQSPSSVSASVGDRVTITCRASQGISSWLAWYQQKPGKAPKLLIYAASNLQSGVPSRFSGSGSGTDFTLTISSLQPEDFATYYCQKYNIAPYTFGQGTKLEIK
binding result: binds

B9: 559B-X0004-B05 (Fab, V domains shown)
VH: EVQLLESGGGLVQPGGSLRLSCAASGFTFHYRMMWVRQAPGKGLEWVSYISSSGGYTAYADSVKGRFTISRDNSKNTLYLQMNSLRAEDTAVYYCAAKRNRAFDIWGQGTMVTVSS
VL: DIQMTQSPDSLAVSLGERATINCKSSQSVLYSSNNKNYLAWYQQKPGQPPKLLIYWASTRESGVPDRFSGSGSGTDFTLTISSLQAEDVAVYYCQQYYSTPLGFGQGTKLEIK
binding result: binds

B10: 559B-M0038-H03 (Fab, V domains shown)
VH: EVQLLESGGGLVQPGGSLRLSCAASGFTFSKYDMHWVRQAPGKGLEWVSRISSSGGKTEYADSVKGRFTISRDNSKNTLYLQMNSLRAEDTAVYYCAREYRYCTANTCSLYGMDVWGRGTTVTVSS
VL: DIQMTQSPSSLSASVGDRVAITCRTSQGVRSDFAWYQQTPGKAPRRLIYAAFILDNGVPSRFSGSGSGTEFTLTISSLQPEDFATYYCQQSYSTPLTFGGGTKVEMK
binding result: binds

B11: 559B-M0003-C08 (Fab, V domains shown)
VH: EVQLLESGGGLVQPGGSLRLSCAASGFTFSPYMMYWVRQAPGKGLEWVSSISPSGGKTWYADSVKGRFTISRDNSKNTLYLQMNSLRAEDTAVYYCARLGGSSSYYYYYYYGMDVWGQGTTVTVSS
VL: QSALTQSPSASGTPGQRVTISCSGSSSNIGGNTVNWYQQFPGTAPKLLIYSNNQRPSGVPDRFSGSKSGTSASLAISGLQSEDEAIYYCASWDDRLNGHWVFGGGTRLTVL
binding result: binds

Now from value to binder:

binding result: binds
B12: 559B-M0038-F04 (Fab, V domains shown)
VH: EVQLLESGGGLVQPGGSLRLSCAASGFTFSKYEMMWVRQAPGKGLEWVSSISPSGGYTMYADSVKGRFTISRDNSKNTLYLQMNSLRAEDTAVYYCARHRSKWNDAPFDSWGQGTLVTVSS
VL: DIQMTQSPSSLSASVGDRVAITCRASQSIDTYLNWYQQKPGKAPKLLIYAASKLEDGVPSRFSGSGTGTDFTLTIRSLQPEDFASYFCQQSYSSPGITFGPGTKVEIK

binding result: binds
B13: 559B-M0061-G06 (Fab, V domains shown)
VH: EVQLLESGGGLVQPGGSLRLSCAASGFTFSKYTMWWVRQAPGKGLEWVSVISSSGGKTYYADSVKGRFTISRDNSKNTLYLQMNSLRAEDTAVYYCARTANRAFDIWGQGTMVTVSS
VL: DIQMTQSPAALSVSPGERATLSCRASQSVSSDLAWYQQKPGQAPRLLIHGASTRATGIPARFSGSGSGREFTLTISSLQSEDFAVYYCQQYNDWPPLFGPGTKVNIK

binding result: binds
B14: 559B-M0047-H01 (Fab, V domains shown)
VH: EVQLLESGGGLVQPGGSLRLSCAASGFTFSFYMMYWVRQAPGKGLEWVSSISSSGGFTRYADSVKGRFTISRDNSKNTLYLQMNSLRAEDTAVYYCARVRGLAVAAPDYWGQGTLVTVSS
VL: QSELTQPASVSGSPGQSITISCIGTSSDIGTYNYVSWYQQHPGKAPKLMIYDVNTRPSGVSDRFSGSKSGNTASLTISGLQAEDEADYYCSSYTTSVTWVFGGGTTLTVL

binding result: binds
B15: 559B-M0044-E09 (Fab, V domains shown)
VH: EVQLLESGGGLVQPGGSLRLSCAASGFTFSQYSMGWVRQAPGKGLEWVSSIYSSGGSTQYADSVKGRFTISRDNSKNTLYLQMNSLRAEDTATYYCARTRRGWFGEDYYYYMDVWGKGTTVTVSS
VL: DIQMTQSPSSLSASVGDRITITCRASQGIRNDVGWYQQKPGKAPQRLIYAASSLQSGVPSRFSGSGSGTEFTLTISSLQPEDFATYYCLQHNSYPLTFGGGTKVEIK

binding result: binds
B16: 559B-M0036-G12 (Fab, V domains shown)
VH: B15 VH with Q31R, S33Y, G35A, S50G, Y52V, S53P, S57Q, Q59G, T93V, T120L
VL: DIQMTQSPGTLSLSPGERATVSCRASQSVGSTYLAWYQHKPGQAPRLLIYGASSRATGIPDRFSGSGSGTDFTLTISSLEPEDFAIYYCQHFHTSPPGITFGQGTRLEIK

binding result: binds
B17: 559B-M0039-D08 (Fab, V domains shown)
VH: EVQLLESGGGLVQPGGSLRLSCAASGFTFSNYAMQWVRQAPGKGLEWVSWIYSSGGPTYYADSVKGRFTISRDNSKNTLYLQMNSLRAEDTAVYYCARGLPGQPFDYWGQGTLVTVSS
VL: QSELTQPPSASGTPGQRVTISCSGSSSNIGNNYVYWYQQFPGTAPKLLIYRNNQRPSGVPDRFSGSKSGTSASLAISGLRSEDEADYYCATWDDRLSGWVFGGGTKLTVL

binding result: binds
B18: 559B-M0021-G11 (Fab, V domains shown)
VH: EVQLLESGGGLVQPGGSLRLSCAASGFTFSPYPMTWVRQAPGKGLEWVSGISSSGGFTPYADSVKGRFTISRDNSKNTLYLQMNSLRAEDTAVYYCARMVRGVIKAFDIWGQGTMVTVSS
VL: B17 VL with S2Y, N31S, N32H, Y35F, F40L, T43A, D94N, R95S, G98A
